Assay [1] deals with T1, ヒトTFPI(American Diagnostica) (human, UniProt P10646 29-304, limits assumed).
T1 construct: Coated on plates (ELISA) or coupled to a CM5 chip (Biacore); also called human TFPI; hTFPI
T1 sequence (looked up): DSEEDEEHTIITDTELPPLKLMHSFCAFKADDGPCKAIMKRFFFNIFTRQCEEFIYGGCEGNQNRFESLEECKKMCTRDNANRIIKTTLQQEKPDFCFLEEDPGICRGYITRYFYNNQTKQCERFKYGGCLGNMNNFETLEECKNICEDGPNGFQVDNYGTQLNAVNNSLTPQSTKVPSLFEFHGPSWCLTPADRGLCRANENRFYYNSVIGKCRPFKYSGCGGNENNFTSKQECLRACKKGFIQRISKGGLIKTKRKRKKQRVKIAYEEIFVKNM
In words: ELISA on coated human TFPI. A general note: In an ELISA, binding on a coated surface is turned into a signal by an enzyme label.

The target of assay [2] is T2, マウスTFPI(R&D System) (mouse, UniProt O54819 29-289, limits assumed).
T2 construct: also called mouse TFPI; mTFPI
T2 sequence (looked up): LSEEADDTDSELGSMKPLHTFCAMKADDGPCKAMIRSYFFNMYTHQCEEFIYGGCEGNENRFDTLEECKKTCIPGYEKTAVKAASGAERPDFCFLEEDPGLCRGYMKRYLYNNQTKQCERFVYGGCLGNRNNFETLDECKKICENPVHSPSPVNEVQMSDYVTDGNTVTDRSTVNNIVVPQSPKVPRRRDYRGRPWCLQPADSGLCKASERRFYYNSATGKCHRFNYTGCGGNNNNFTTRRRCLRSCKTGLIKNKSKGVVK
In words: ELISA on coated mouse TFPI.

The target in assay [3] is T2, マウスTFPI(R&D System). Briefly: ELISA on coated mouse TFPI, IgG against Fab.
The target of assay [4] is T1, ヒトTFPI(American Diagnostica). Briefly: ELISA on coated human TFPI, IgG against Fab.
For assay [5] the target is unchanged. In words: ELISA screen of Fab lysates on coated human TFPI.

These results are taken from patent publication JP2018038398A (dated 2018).

B1: TP-2G6 (Fab, V domains shown)
VH: QVQLQQSGPGLVKPSQTLSLTCAISGDSVSSSSAAWSWIRQSPGRGLEWLGIIYYRSKWYNDYAVSVKSRITINPDTSKNQFSLQLNSVTPEDTAVYYCARHSMVGFDVWGQGTLVTVSS
VL: DIVLTQSPATLSLSPGERATLSCRASQYVTSSYLAWYQQKPGQAPRLLIYGSSRATGVPARFSGSGSGTDFTLTISSLEPEDFATYYCQQYSSSPITFGQGTKVEIKR
notes: Human Fab from HuCAL Gold, purified over Ni-NTA; also called 2G6-Fab
By EC50 is commonly meant the concentration giving half of the maximal effect. Read a low EC50 as a more potent agent. For the molecule B1, the results for the EC50 in assay [1] and in assay [2] were 0.48 nM and 5.18 nM, respectively.

B2: 2G6−IgG (antibody, V domains shown)
VH: B1 VH
VL: B1 VL
notes: also called IgG-2G6; 2G6-IgG
Regarding B2, the “fold change of EC50 against 2G6-Fab” value stood at 10 fold in assay [3] and 2 fold in assay [4]. The EC50 in assay [1] is 0.22 nM; in assay [2], 0.51 nM.

B3: TP-2A8 (Fab, V domains shown)
VH: QVQLVESGGGLVQPGGSLRLSCAASGFTFRSYGMSWVRQAPGKGLEWVSSIRGSSSSTYYADSVKGRFTISRDNSKNTLYLQMNSLRAEDTAVYYCARKYRYWFDYWGQGTLVTVSS
VL: DIELTQPPSVSVAPGQTARISCSGDNLRNYYAHWYQQKPGQAPVVVIYYDNNRPSGIPERFSGSNSGNTATLTISGTQAEDEADYYCQSWDDGVPVFGGGTKLTVLG
notes: Human Fab from HuCAL Gold; also called Fab-2A8; TP-2A8-Fab
Turning to B3, the binding result in assay [5] is on record as “binds”.

B4: TP-4B7 (Fab, V domains shown)
VH: QVQLQQSGPGLVKPSQTLSLTCAISGDSVSSNSAAWSWIRQSPGRGLEWLGIIYKRSKWYNDYAVSVKSRITINPDTSKNQFSLQLNSVTPEDTAVYYCARWHSDKHWGFDYWGQGTLVTVSS
VL: DIVMTQSPLSLPVTPGEPASISCRSSQSLVFSDGNTYLNWYLQKPGQSPQLLIYKGSNRASGVPDRFSGSGSGTDFTLKISRVEAEDVGVYYCQQYDSYPLTFGQGTKVEIKR
notes: Human Fab from HuCAL Gold
On to B4, for which the binding result in assay [5] is recorded as “binds”.
